The record followed here is paper PMC4720395, “Improvements in Glucose Sensitivity and Stability of Trichoderma reesei β-Glucosidase Using Site-Directed Mutagenesis” (PLoS ONE, 2016).

The target of series [1] is T1, Cel1A (Bgl II) (Trichoderma reesei, UniProt O93785, L2V).
T1 construct: gene bgl2; forward primer with NcoI site encodes N-terminus MVPKDFQW; GH1
T1 sequence (O93785 1-466 L2V): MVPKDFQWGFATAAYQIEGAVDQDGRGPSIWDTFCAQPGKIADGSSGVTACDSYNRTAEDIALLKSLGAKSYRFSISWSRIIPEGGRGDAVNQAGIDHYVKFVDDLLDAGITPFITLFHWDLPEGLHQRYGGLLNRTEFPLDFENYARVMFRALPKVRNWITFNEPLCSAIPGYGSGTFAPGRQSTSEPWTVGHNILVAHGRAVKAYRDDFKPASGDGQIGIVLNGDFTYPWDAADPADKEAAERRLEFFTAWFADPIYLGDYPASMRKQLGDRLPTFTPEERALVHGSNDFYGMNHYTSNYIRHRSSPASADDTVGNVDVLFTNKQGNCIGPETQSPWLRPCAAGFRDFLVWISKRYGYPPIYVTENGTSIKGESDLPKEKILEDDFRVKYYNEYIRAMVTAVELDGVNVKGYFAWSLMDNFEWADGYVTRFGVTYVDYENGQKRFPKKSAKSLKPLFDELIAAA
Description: Dixon plot, pNPG hydrolysis, p-nitrophenol absorbance […] nm. To be noted: pNPG substrate (low concentrations), 100 mM acetate pH 5.5, 30°C; competitive; read-out: WT. Format: biochemical.

Series [2] deals with T2, Cel1A (Bgl II) (Trichoderma reesei, UniProt O93785, L2V/L167W/P172L).
T2 construct: gene bgl2; forward primer with NcoI site encodes N-terminus MVPKDFQW; GH1
T2 sequence (O93785 1-466 L2V/L167W/P172L): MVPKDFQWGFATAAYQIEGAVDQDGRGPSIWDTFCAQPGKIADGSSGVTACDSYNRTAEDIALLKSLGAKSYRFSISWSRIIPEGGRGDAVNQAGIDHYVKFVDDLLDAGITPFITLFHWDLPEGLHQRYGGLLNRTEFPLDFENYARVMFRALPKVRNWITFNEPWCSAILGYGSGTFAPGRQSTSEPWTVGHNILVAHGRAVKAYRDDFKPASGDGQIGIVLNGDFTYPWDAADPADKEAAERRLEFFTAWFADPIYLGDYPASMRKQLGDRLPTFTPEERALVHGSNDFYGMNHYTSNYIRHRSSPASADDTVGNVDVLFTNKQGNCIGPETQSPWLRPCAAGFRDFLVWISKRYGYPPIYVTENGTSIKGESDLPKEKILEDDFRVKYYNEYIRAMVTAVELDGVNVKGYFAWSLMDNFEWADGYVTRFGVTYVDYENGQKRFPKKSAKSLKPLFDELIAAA
The description is as above. To be noted: pNPG substrate (low concentrations), 100 mM acetate pH 5.5, 30°C; competitive; glucose also stimulates at higher pNPG; read-out: WT. Format: biochemical.

Substrate in the series “purified protein”: O=[N+]([O-])c1ccc(O[C@@H]2O[C@H](CO)[C@@H](O)[C@H](O)[C@H]2O)cc1
Description: purified protein. Format: biochemical, Trichoderma reesei. To be noted: 100 mM acetate pH 5.5, 30°C, no glucose.

Setting [3] is: substrate inhibition above 0.25 mM pNPG.

As for `OC[C@H]1OC(O)[C@H](O)[C@@H](O)[C@@H]1O` (stereo partly drawn) [glucose], the Ki on Cel1A (Bgl II) [1] and on Cel1A (Bgl II) [2] was 50 mM in each case.

B1: Cel1A (Bgl II) (Trichoderma reesei; L167W/L2V/P172L) (protein)
chain: MVPKDFQWGFATAAYQIEGAVDQDGRGPSIWDTFCAQPGKIADGSSGVTACDSYNRTAEDIALLKSLGAKSYRFSISWSRIIPEGGRGDAVNQAGIDHYVKFVDDLLDAGITPFITLFHWDLPEGLHQRYGGLLNRTEFPLDFENYARVMFRALPKVRNWITFNEPWCSAILGYGSGTFAPGRQSTSEPWTVGHNILVAHGRAVKAYRDDFKPASGDGQIGIVLNGDFTYPWDAADPADKEAAERRLEFFTAWFADPIYLGDYPASMRKQLGDRLPTFTPEERALVHGSNDFYGMNHYTSNYIRHRSSPASADDTVGNVDVLFTNKQGNCIGPETQSPWLRPCAAGFRDFLVWISKRYGYPPIYVTENGTSIKGESDLPKEKILEDDFRVKYYNEYIRAMVTAVELDGVNVKGYFAWSLMDNFEWADGYVTRFGVTYVDYENGQKRFPKKSAKSLKPLFDELIAAA
notes: forward primer with NcoI site encodes N-terminus MVPKDFQW; GH1
In general, Km refers to the substrate concentration at which the rate is half of its maximum. One may read the Vmax as the top rate of the reaction or transport when substrate is in excess. As to B1, in “purified protein” (setting [3]), the Km worked out at 230 ± 10 µM and the Vmax is 13.3 µmol/min/mg.

B2: Cel1A (Bgl II) (Trichoderma reesei; L2V) (protein)
chain: MVPKDFQWGFATAAYQIEGAVDQDGRGPSIWDTFCAQPGKIADGSSGVTACDSYNRTAEDIALLKSLGAKSYRFSISWSRIIPEGGRGDAVNQAGIDHYVKFVDDLLDAGITPFITLFHWDLPEGLHQRYGGLLNRTEFPLDFENYARVMFRALPKVRNWITFNEPLCSAIPGYGSGTFAPGRQSTSEPWTVGHNILVAHGRAVKAYRDDFKPASGDGQIGIVLNGDFTYPWDAADPADKEAAERRLEFFTAWFADPIYLGDYPASMRKQLGDRLPTFTPEERALVHGSNDFYGMNHYTSNYIRHRSSPASADDTVGNVDVLFTNKQGNCIGPETQSPWLRPCAAGFRDFLVWISKRYGYPPIYVTENGTSIKGESDLPKEKILEDDFRVKYYNEYIRAMVTAVELDGVNVKGYFAWSLMDNFEWADGYVTRFGVTYVDYENGQKRFPKKSAKSLKPLFDELIAAA
notes: as for B1
As to B2, in “purified protein”, the Michaelis-Menten constant (Km) is 2480 ± 750 µM and the maximal velocity (Vmax) worked out at 7.7 µmol/min/mg.
